For two molecules, fold reduction in dissociation half-life against wild-type P113 and Kd results are on record in publication doi:10.1101/2020.06.12.149534 (bioRxiv, 2020).

Assay [1] addresses P113 N-terminal fragment D106K E107K, biotinylated bait (Plasmodium falciparum (3D7 strain)) (UniProt Q8ILP3). Put plainly: SPR. For orientation: In SPR one partner is held on a chip, and binding of the other changes the refractive index at the surface.
Assay [2] addresses T1, P113 N-terminal fragment (P. falciparum 3D7), purified soluble analyte (Plasmodium falciparum 3D7, stabilised).
T1 chain: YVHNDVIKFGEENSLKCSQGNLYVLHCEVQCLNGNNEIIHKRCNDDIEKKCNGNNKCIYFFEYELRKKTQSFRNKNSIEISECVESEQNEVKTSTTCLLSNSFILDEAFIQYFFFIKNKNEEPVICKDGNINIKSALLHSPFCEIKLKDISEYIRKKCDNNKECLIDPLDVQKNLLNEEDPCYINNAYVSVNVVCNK
Put plainly: SPR.

One may read the Kd as the equilibrium constant for the complex coming apart. Lower therefore signals a tighter complex.

In assay [1], “purified monomeric RH5 protein (from UniProt Q8IFM5 25-526) (natural protein)” yielded a fold reduction in dissociation half-life against wild-type P113 of 2 fold.

B1: anti-P113 monoclonal antibody P3.2 (antibody, V domains shown)
VH: QVQLQQPGAELVKPGASVRLSCKASGYTFTSYFMYWVRQRPGQGLQSIGGINPNNGGSNFNERFKTKATLTVDKSSSIAYLQLNSLTSEDSAVYYCTRRGLGYDYGGFAYWGQGTLVTVSA
VL: DIQMTQTTSSLSASLGDRVTISCRASQDISNYLNWYQQKPDGTVKLLIYYTSRLHSGVSSRFSGSGSGTDYSLTIKNLEQEDIATYFCQQVNALPPTFGGGTKLEIK
In assay [2], B1 came in with a Kd of 320 nM.
